According to publication PMC7110780, “Multimodular fused acetyl–feruloyl esterases from soil and gut Bacteroidetes improve xylanase depolymerization of recalcitrant biomass” (Biotechnology for Biofuels, 2020):

B1: FjCE1 (Flavobacterium johnsoniae UW101) (protein)
chain: FDEVNANAPQGKVEIVSYESKTVGSTRKATIYTPPGFNKNKKYPVLYLLHGIGGDEKEWLNGGQPNVILDNLYADGKLEPMIVVMPNGRAMKDDRAGGDIMAADKVKAFSVFEKDLLNDLIPFIEKKYPVLKDREHRAIAGLSMGGGQSLNFGLGNLDQFAWVGAFSAAPNTKIGTELLAKPEEAKKKLKLLWISCGDKDWLIENSTRTHDYLAKNNVPHIYYIEPGVHDFKVWKNGLYMFSQFLFKEVDPLVFQKYSISAYTIEK
notes: domain borders not in main text
B2: FjCE6 (Flavobacterium johnsoniae UW101) (protein)
chain: SQDPNFHVYLSFGQSNMEGFAKIEPQDKTGVNERFQVLSAVDCPEMGREKGKWYTAVPPLCRCTTGLTPMDYFGRTMISNLPQNIKVGVVNVAVGGCKIELFDKNNFESYVANSPDWLKNIVKQYDGNPYGRLVEMAKIAQKKGVIKGILLHQGESNTGDTLWPQKVKIVYDNLIKDLNLDPKKVPLLSGETVNEDQNGKCGSMNKIIAKLPQVLPNSYIISSKGCKADADFLHFSPEGYRELGKRYADKMLSLSGYMLFNGKE
notes: as for B1

Tests used:
Assay in all cases: purified protein
Assay type in all cases: biochemical, Flavobacterium johnsoniae
purified protein [1] = substrate: CC(=O)Oc1ccc2c(C)cc(=O)oc2c1; conditions: 100 mM buffer
purified protein [2] = substrate: COC(=O)/C=C/c1cc(OC)c(O)c(OC)c1; conditions: pH 6.5, 25 °C, 100 mM buffer
purified protein [3] = substrate: COC(=O)/C=C/c1ccc(O)c(O)c1; conditions: pH 6.5, 25 °C, 100 mM buffer
purified protein [4] = substrate: COC(=O)/C=C/c1ccc(O)c(OC)c1; conditions: pH 6.5, 25 °C, 100 mM buffer
purified protein [5] = substrate: COC(=O)/C=C/c1ccc(O)cc1; conditions: pH 6.5, 25 °C, 100 mM buffer

Row | Protein | Km (purified protein [1]; pH 6.5, 25 °C) [mM] | kcat (purified protein [1]; pH 6.5, 25 °C) [s⁻¹] | kcat/Km (purified protein [1]; pH 6.5, 25 °C) [M⁻¹ s⁻¹] | Km (purified protein [2]) [mM] | kcat (purified protein [2]) [s⁻¹] | kcat/Km (purified protein [2]) [M⁻¹ s⁻¹] | Km (purified protein [3]) [mM] | kcat (purified protein [3]) [s⁻¹] | kcat/Km (purified protein [3]) [M⁻¹ s⁻¹] | Km (purified protein [4]) [mM] | kcat (purified protein [4]) [s⁻¹] | kcat/Km (purified protein [4]) [M⁻¹ s⁻¹] | Km (purified protein [5]) [mM] | kcat (purified protein [5]) [s⁻¹] | kcat/Km (purified protein [5]) [M⁻¹ s⁻¹] | Km (purified protein [1]; pH 8, 25 °C) [mM] | kcat (purified protein [1]; pH 8, 25 °C) [s⁻¹] | kcat/Km (purified protein [1]; pH 8, 25 °C) [M⁻¹ s⁻¹]
1 | B1 | 0.07 ± 0.01 | 0.61 ± 0.03 | 8700 ± 1700 | 0.14 ± 0.02 | 1.8 ± 0.1 | 13000 ± 2200 | 0.34 ± 0.10 | 0.83 ± 0.14 | 2700 ± 1000 | 0.11 ± 0.02 | 2.5 ± 0.2 | 23100 ± 4500 | 0.39 ± 0.12 | 1.5 ± 0.3 | 3900 ± 1400 | – | – | –
2 | B2 | – | – | – | – | – | – | – | – | – | – | – | – | – | – | – | 0.15 ± 0.02 | 6.7 ± 0.2 | 43400 ± 4400
